Like-named read-outs stand apart in the source and are kept apart here.
Assays:
Test in all cases: SPR
[1] = molecular target: T1, Lon (Escherichia coli, UniProt P0A9M0 1-784)
[2] = molecular target: Lon;TrfA P151S/G254D/S267L (Escherichia coli;plasmid RK2, UniProt P0A9M0;P07676 1-784;98-382, |P151S;G254D;S267L)
[3] = molecular target: T2, ClpA (Escherichia coli, UniProt P0ABH9 1-758)
T2 sequence: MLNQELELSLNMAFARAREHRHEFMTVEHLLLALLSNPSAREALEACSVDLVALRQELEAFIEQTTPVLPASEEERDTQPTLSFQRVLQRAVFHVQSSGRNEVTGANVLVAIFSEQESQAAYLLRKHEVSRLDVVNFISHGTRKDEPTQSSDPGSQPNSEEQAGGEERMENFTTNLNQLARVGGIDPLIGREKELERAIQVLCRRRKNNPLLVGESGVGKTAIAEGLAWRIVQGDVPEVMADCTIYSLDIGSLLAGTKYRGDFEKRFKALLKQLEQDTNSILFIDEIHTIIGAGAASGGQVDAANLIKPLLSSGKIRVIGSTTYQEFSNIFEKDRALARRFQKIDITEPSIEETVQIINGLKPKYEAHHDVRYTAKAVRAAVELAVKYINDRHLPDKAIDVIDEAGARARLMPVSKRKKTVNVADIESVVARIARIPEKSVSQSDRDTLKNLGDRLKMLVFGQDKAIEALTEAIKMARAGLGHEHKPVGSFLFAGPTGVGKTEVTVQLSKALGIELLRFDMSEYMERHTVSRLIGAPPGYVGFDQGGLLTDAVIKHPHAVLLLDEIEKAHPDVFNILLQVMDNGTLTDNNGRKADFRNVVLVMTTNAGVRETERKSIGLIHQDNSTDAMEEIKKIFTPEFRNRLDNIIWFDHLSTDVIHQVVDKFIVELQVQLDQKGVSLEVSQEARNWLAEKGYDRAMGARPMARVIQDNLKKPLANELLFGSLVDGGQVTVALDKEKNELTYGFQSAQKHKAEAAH

[4] = molecular target: T3, TrfA wt (His6-TrfA-33) (plasmid RK2, UniProt P07676 98-382)
T3 sequence: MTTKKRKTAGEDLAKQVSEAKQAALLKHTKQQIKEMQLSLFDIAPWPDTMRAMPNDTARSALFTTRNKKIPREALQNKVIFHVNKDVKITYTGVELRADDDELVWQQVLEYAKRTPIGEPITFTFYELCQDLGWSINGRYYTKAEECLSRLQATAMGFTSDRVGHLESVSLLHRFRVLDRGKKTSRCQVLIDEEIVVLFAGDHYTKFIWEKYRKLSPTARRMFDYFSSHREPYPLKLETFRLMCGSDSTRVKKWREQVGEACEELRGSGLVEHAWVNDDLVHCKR

[5] = molecular target: T1, Lon; remark: listed apart in the source
[6] = molecular target: T4, TrfA G254D/S267L (plasmid RK2, UniProt P07676 98-382, G254D;S267L)
T4 sequence: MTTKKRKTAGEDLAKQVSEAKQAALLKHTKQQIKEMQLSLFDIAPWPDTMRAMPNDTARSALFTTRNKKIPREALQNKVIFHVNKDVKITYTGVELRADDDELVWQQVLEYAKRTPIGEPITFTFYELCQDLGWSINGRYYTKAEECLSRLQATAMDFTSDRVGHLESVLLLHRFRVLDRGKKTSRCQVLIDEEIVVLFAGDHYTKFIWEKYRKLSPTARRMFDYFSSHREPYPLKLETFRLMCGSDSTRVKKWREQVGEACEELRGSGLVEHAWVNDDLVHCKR

Measured: binding result

B1: frag2 (pUC19 fragment, 129 bp) (dsDNA)
DNA 1: AGCTCACAATTCCACACAACATACGAGCCGGAAGCATAAAGTGTAAAGCCTGGGGTGCCTAATGAGTGAGCTAACTCACATTAATTGCGTTGCGCTCACTGCCCGCTTTCCAGTCGGGAAACCTGTCGT
DNA 2: ACGACAGGTTTCCCGACTGGAAAGCGGGCAGTGAGCGCAACGCAATTAATGTGAGTTAGCTCACTCATTAGGCACCCCAGGCTTTACACTTTATGCTTCCGGCTCGTATGTTGTGTGGAATTGTGAGCT
binds: [1] | [2] | [3]

B2: frag1 (five RK2 oriV iterons, 129 bp) (dsDNA)
DNA 1: CCTGCGGTATTGACACTTGAGGGGCGCGACTACTGACAGATGAGGGGCGCGATCCTTGACACTTGAGGGGCAGAGTGATGACAGATGAGGGGCGCACCTATTGACATTTGAGGGGCTGTCCACAGGCAG
DNA 2: CTGCCTGTGGACAGCCCCTCAAATGTCAATAGGTGCGCCCCTCATCTGTCATCACTCTGCCCCTCAAGTGTCAAGGATCGCGCCCCTCATCTGTCAGTAGTCGCGCCCCTCAAGTGTCAATACCGCAGG
binds: [4] | [3] | [5] | [6]

From article PMC3273809
